The substances below were run against T1, HLA-A*02:01 (Homo sapiens, UniProt P04439, D140Y/D185E/D98H/E176V/E277Q/G131W/G231S/I119V/I121R/I166T/I218V/L300P/L318F/N151K/N90K/P208A/P217A/Q86G/Q94H/R138H/R169H/T345S) (assay: MHC binding assay: UV-ligand exchange with β2m ELISA (peptide exchange yield)). Conditions: binding to HLA-A*02:01 evaluated by peptide exchange yield (UV-ligand exchange, β2m ELISA).
T1 construct: made in house
Excerpt: Candidate peptides for T cell based therapies according to the present invention were further tested for their MHC binding capacity (affinity). The individual peptide-MHC complexes were produced by UV-ligand exchange, where a UV-sensitive peptide is cleaved upon UV-irradiation, and exchanged with the peptide of interest as analyzed. Only peptide candidates that can effectively bind and stabilize the peptide-receptive MHC molecules prevent dissociation of the MHC complexes. To determine the yield of the exchange reaction, an ELISA was performed based on the detection of the light chain (β2m) of stabilized MHC complexes. The assay was performed as generally described in Rodenko et al. (Rodenko et al., 2006).
96 well MAXISorp plates (NUNC) were coated over night with 2 ug/ml streptavidin in PBS at room temperature, washed 4× and blocked for 1 h at 37° C. in 2% BSA containing blocking buffer. Refolded HLA-A*02:01/MLA-001 monomers served as standards, covering the range of 15-500 ng/ml. Peptide-MHC monomers of the UV-exchange reaction were diluted 100 fold in blocking buffer. Samples were incubated for 1 h at 37° C., washed four times, incubated with 2 ug/ml HRP conjugated anti-β2m for 1 h at 37° C., washed again and detected with TMB solution that is stopped with […]. Absorption was measured at 450 nm. Candidate peptides that show a high exchange yield (preferably higher than 50%, most preferred higher than 75%) are generally preferred for a generation and production of antibodies or fragments thereof, and/or T cell receptors or fragments thereof, as they show sufficient avidity to the MHC molecules and prevent dissociation of the MHC complexes.

Substance | Peptide exchange
100 (ALQSFEFRV; listed as Homo sapiens) [compound 100] | +++ (≧50 = +++)
103 (YLADTVQKL; listed as Homo sapiens) [compound 103] | ++ (≧20% = ++)
105 (AMLASQTEA; listed as Homo sapiens) [compound 105] | ++ (≧20% = ++)
106 (VLLGSVVIFA; listed as Homo sapiens) [compound 106] | ++ (≧20% = ++)
107 (RVLPGQAVTGV; listed as Homo sapiens) [compound 107] | ++ (≧20% = ++)
108 (FIANLPPELKA; listed as Homo sapiens) [compound 108] | +++ (≧50 = +++)
109 (ILGSFELQL; listed as Homo sapiens) [compound 109] | +++ (≧50 = +++)
110 (QIQGQVSEV; listed as Homo sapiens) [compound 110] | ++ (≧20% = ++)
111 (AQLEGKLVSI; listed as Homo sapiens) [compound 111] | +++ (≧50 = +++)
112 (ILAQDVAQL; listed as Homo sapiens) [compound 112] | +++ (≧50 = +++)
113 (FLFLKEVKV; listed as Homo sapiens) [compound 113] | ++ (≧20% = ++)
114 (LLFPSDVQTL; listed as Homo sapiens) [compound 114] | ++ (≧20% = ++)
115 (ILHGEVNKV; listed as Homo sapiens) [compound 115] | ++ (≧20% = ++)
116 (ALLSSVAEA; listed as Homo sapiens) [compound 116] | ++ (≧20% = ++)
119 (SLIEESEEL; listed as Homo sapiens) [compound 119] | ++ (≧20% = ++)
122 (SIIDTELKV; listed as Homo sapiens) [compound 122] | +++ (≧50 = +++)
123 (QTAPEEAFIKL; listed as Homo sapiens) [compound 123] | + (≧10% = +)
124 (ALLLRLFTI; listed as Homo sapiens) [compound 124] | ++ (≧20% = ++)
125 (AALEVLAEV; listed as Homo sapiens) [compound 125] | +++ (≧50 = +++)
126 (QLREAFEQL; listed as Homo sapiens) [compound 126] | +++ (≧50 = +++)

Substance | Peptide exchange
128 (SILTNISEV; listed as Homo sapiens) [compound 128] | ++ (≧20% = ++)
129 (KMASKVTQV; listed as Homo sapiens) [compound 129] | ++ (≧20% = ++)
130 (QLYGSAITL; listed as Homo sapiens) [compound 130] | +++ (≧50 = +++)
131 (SLYPHFTLL; listed as Homo sapiens) [compound 131] | +++ (≧50 = +++)
132 (ALLNNVIEV; listed as Homo sapiens) [compound 132] | +++ (≧50 = +++)
133 (FLDGRPLTL; listed as Homo sapiens) [compound 133] | ++ (≧20% = ++)
134 (SLYKSFLQL; listed as Homo sapiens) [compound 134] | ++ (≧20% = ++)
136 (LLWDAPAKC; listed as Homo sapiens) [compound 136] | +++ (≧50 = +++)
137 (KLIYKDLVSV; listed as Homo sapiens) [compound 137] | ++ (≧20% = ++)
138 (GIINKLVTV; listed as Homo sapiens) [compound 138] | ++ (≧20% = ++)
139 (IILENIQSL; listed as Homo sapiens) [compound 139] | +++ (≧50 = +++)
140 (FLDSQITTV; listed as Homo sapiens) [compound 140] | +++ (≧50 = +++)
141 (NIDINNNEL; listed as Homo sapiens) [compound 141] | ++ (≧20% = ++)
142 (LLDAAHASI; listed as Homo sapiens) [compound 142] | ++ (≧20% = ++)
143 (MLWESIMRV; listed as Homo sapiens) [compound 143] | +++ (≧50 = +++)
144 (FLISQTPLL; listed as Homo sapiens) [compound 144] | +++ (≧50 = +++)
145 (ALEEKLENV; listed as Homo sapiens) [compound 145] | +++ (≧50 = +++)
146 (VVAAHLAGA; listed as Homo sapiens) [compound 146] | ++ (≧20% = ++)
147 (GLLSALENV; listed as Homo sapiens) [compound 147] | +++ (≧50 = +++)
148 (YLILSSHQL; listed as Homo sapiens) [compound 148] | +++ (≧50 = +++)

Substance | Peptide exchange
149 (NMADGQLHQV; listed as Homo sapiens) [compound 149] | ++ (≧20% = ++)
150 (VLLDMVHSL; listed as Homo sapiens) [compound 150] | +++ (≧50 = +++)
151 (DISKRIQSL; listed as Homo sapiens) [compound 151] | ++ (≧20% = ++)
153 (KLVELEHTL; listed as Homo sapiens) [compound 153] | +++ (≧50 = +++)
154 (AIIKEIQTV; listed as Homo sapiens) [compound 154] | ++ (≧20% = ++)
155 (TLDSYLKAV; listed as Homo sapiens) [compound 155] | ++ (≧20% = ++)
158 (YLDPLWHQL; listed as Homo sapiens) [compound 158] | +++ (≧50 = +++)
159 (QLGPVPVTI; listed as Homo sapiens) [compound 159] | +++ (≧50 = +++)
160 (TLQEWLTEV; listed as Homo sapiens) [compound 160] | +++ (≧50 = +++)
161 (NLLDENVCL; listed as Homo sapiens) [compound 161] | ++++ (≧75% = ++++)
162 (GLLGNLLTSL; listed as Homo sapiens) [compound 162] | +++ (≧50 = +++)
163 (GLEERLYTA; listed as Homo sapiens) [compound 163] | ++ (≧20% = ++)
164 (MLIIRVPSV; listed as Homo sapiens) [compound 164] | +++ (≧50 = +++)
165 (SLLDYEVSI; listed as Homo sapiens) [compound 165] | +++ (≧50 = +++)
167 (LVVDEGSLVSV; listed as Homo sapiens) [compound 167] | +++ (≧50 = +++)
168 (VIFEGEPMYL; listed as Homo sapiens) [compound 168] | +++ (≧50 = +++)
169 (ALADLSVAV; listed as Homo sapiens) [compound 169] | +++ (≧50 = +++)
170 (FIAAVVEKV; listed as Homo sapiens) [compound 170] | ++ (≧20% = ++)
171 (LLLLDVPTA; listed as Homo sapiens) [compound 171] | ++ (≧20% = ++)
173 (RLIDIYKNV; listed as Homo sapiens) [compound 173] | +++ (≧50 = +++)
